Laboratory results from the supplement of paper PMC9233669.
Variants at the floor of the assay were thinned out.

Tests used:
biotinyl-Phe-oxazolone = assay: self-aminoacylation, catalytic enhancement (BFO) (fold over background); higher = more active; k-Seq, kA / k0A0; sequences stand for … in GGGAAUGGAUCCACAUCUACGAAUUC…UUCACUGCAGACUUGACGAAGCUG
Outline: (§1)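 Each biotinyl-aminoacyl-oxazolone, at 2–1250 μM, was incubated with mutagenized RNA pools (0.43 μM) carrying a 21-nt variable region. The 50 μL reactions contained HEPES/NaCl/KCl/MgCl2/CaCl2 buffer with 5% acetonitrile at pH 6.9–7.0 and ran for 90 minutes at room temperature. After streptavidin capture, RNA was measured by qPCR in triplicate and by Illumina sequencing, and catalytic enhancement was calculated as median kA over the uncatalyzed rate from a pseudo-first-order fit of per-sequence fraction reacted.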

biotinyl-Ile-oxazolone = assay: self-aminoacylation, catalytic enhancement (BIO) (fold over background); higher = more active; k-Seq, kA / k0A0; sequences stand for … in GGGAAUGGAUCCACAUCUACGAAUUC…UUCACUGCAGACUUGACGAAGCUG
Outline: as §1

biotinyl-Met-oxazolone = assay: self-aminoacylation, catalytic enhancement (BMO) (fold over background); higher = more active; k-Seq, kA / k0A0; sequences stand for … in GGGAAUGGAUCCACAUCUACGAAUUC…UUCACUGCAGACUUGACGAAGCUG
Outline: as §1

biotinyl-Val-oxazolone = assay: self-aminoacylation, catalytic enhancement (BVO) (fold over background); higher = more active; k-Seq, kA / k0A0; sequences stand for … in GGGAAUGGAUCCACAUCUACGAAUUC…UUCACUGCAGACUUGACGAAGCUG
Outline: as §1

biotinyl-Leu-oxazolone = assay: self-aminoacylation, catalytic enhancement (BLO) (fold over background); higher = more active; k-Seq, kA / k0A0; sequences stand for … in GGGAAUGGAUCCACAUCUACGAAUUC…UUCACUGCAGACUUGACGAAGCUG
Outline: as §1

biotinyl-Trp-oxazolone = assay: self-aminoacylation, catalytic enhancement (BWO) (fold over background); higher = more active; k-Seq, kA / k0A0; sequences stand for … in GGGAAUGGAUCCACAUCUACGAAUUC…UUCACUGCAGACUUGACGAAGCUG
Outline: as §1

In the case of “CCACACUUCGAGCAAUCGGUA [Fam1B.1 aminoacylation ribozyme variant]”, the self-aminoacylation (biotinyl-Phe-oxazolone) is reported as 0.573, the self-aminoacylation (biotinyl-Ile-oxazolone) is reported as 0.715 and the self-aminoacylation (biotinyl-Met-oxazolone) is reported as 0.716. It also gave a self-aminoacylation (biotinyl-Val-oxazolone) of 1.06, a self-aminoacylation (biotinyl-Leu-oxazolone) of 0.849 and a self-aminoacylation (biotinyl-Trp-oxazolone) of 1.

Work on “CCACACUUCGAGCAAUCGGUG [Fam1B.1 aminoacylation ribozyme variant]” yielded a self-aminoacylation (biotinyl-Phe-oxazolone) of 15.2, a self-aminoacylation (biotinyl-Ile-oxazolone) of 1.62 and a self-aminoacylation (biotinyl-Met-oxazolone) of 2.48. It also gave a self-aminoacylation (biotinyl-Val-oxazolone) of 1.91, a self-aminoacylation (biotinyl-Leu-oxazolone) of 3.3 and a self-aminoacylation (biotinyl-Trp-oxazolone) of 2.07.

“CCACACUUCGAGCAAUUGGUC [Fam1B.1 aminoacylation ribozyme variant]” was tested, and the self-aminoacylation (biotinyl-Phe-oxazolone) was 0.518, the self-aminoacylation (biotinyl-Ile-oxazolone) was 0.79 and the self-aminoacylation (biotinyl-Met-oxazolone) was 0.721. It also gave a self-aminoacylation (biotinyl-Val-oxazolone) of 0.956, a self-aminoacylation (biotinyl-Leu-oxazolone) of 0.747 and a self-aminoacylation (biotinyl-Trp-oxazolone) of 0.375.

In the case of “CCACACUUCUAGCAAUCGGUG [Fam1B.1 aminoacylation ribozyme variant]”, the self-aminoacylation (biotinyl-Phe-oxazolone) is reported as 19.8, the self-aminoacylation (biotinyl-Ile-oxazolone) is reported as 2.65 and the self-aminoacylation (biotinyl-Met-oxazolone) is reported as 3.47. For the same sequence, the self-aminoacylation (biotinyl-Val-oxazolone) was 2.62, the self-aminoacylation (biotinyl-Leu-oxazolone) was 4.64 and the self-aminoacylation (biotinyl-Trp-oxazolone) was 3.09.

Sequence “CCACACUUCUAGCAAUCGGUU [Fam1B.1 aminoacylation ribozyme variant]” has a self-aminoacylation (biotinyl-Phe-oxazolone) of 1.17, a self-aminoacylation (biotinyl-Ile-oxazolone) of 1.34 and a self-aminoacylation (biotinyl-Met-oxazolone) of 0.978. It also gave a self-aminoacylation (biotinyl-Val-oxazolone) of 1.36, a self-aminoacylation (biotinyl-Leu-oxazolone) of 1.13 and a self-aminoacylation (biotinyl-Trp-oxazolone) of 1.12.

With “CCACACUUCUAGCCAUCGGUC [Fam1B.1 aminoacylation ribozyme variant]” the self-aminoacylation (biotinyl-Phe-oxazolone) was 1.09, the self-aminoacylation (biotinyl-Ile-oxazolone) was 0.924 and the self-aminoacylation (biotinyl-Met-oxazolone) was 0.683. The self-aminoacylation (biotinyl-Val-oxazolone) was 1.01, the self-aminoacylation (biotinyl-Leu-oxazolone) was 0.778 and the self-aminoacylation (biotinyl-Trp-oxazolone) was 0.962.

For “CCACACUUGAAGCAAUCCGUC [Fam1B.1 aminoacylation ribozyme variant]”, the self-aminoacylation (biotinyl-Phe-oxazolone) was 0.745, the self-aminoacylation (biotinyl-Ile-oxazolone) was 1.02 and the self-aminoacylation (biotinyl-Met-oxazolone) was 0.993. It also gave a self-aminoacylation (biotinyl-Val-oxazolone) of 1, a self-aminoacylation (biotinyl-Leu-oxazolone) of 0.905 and a self-aminoacylation (biotinyl-Trp-oxazolone) of 0.76.

In the case of “CCACACUUGAAGCAAUCGGUA [Fam1B.1 aminoacylation ribozyme variant]”, the self-aminoacylation (biotinyl-Phe-oxazolone) is reported as 0.696, the self-aminoacylation (biotinyl-Ile-oxazolone) is reported as 1.07 and the self-aminoacylation (biotinyl-Met-oxazolone) is reported as 0.976. It also gave a self-aminoacylation (biotinyl-Val-oxazolone) of 1.25, a self-aminoacylation (biotinyl-Leu-oxazolone) of 1.13 and a self-aminoacylation (biotinyl-Trp-oxazolone) of 0.948.

“CCACACUUGAAGCAAUCGGUC [Fam1B.1 aminoacylation ribozyme variant]” gave a self-aminoacylation (biotinyl-Phe-oxazolone) of 0.778, a self-aminoacylation (biotinyl-Ile-oxazolone) of 0.836 and a self-aminoacylation (biotinyl-Met-oxazolone) of 0.782. For the same sequence, the self-aminoacylation (biotinyl-Val-oxazolone) was 0.926, the self-aminoacylation (biotinyl-Leu-oxazolone) was 0.735 and the self-aminoacylation (biotinyl-Trp-oxazolone) was 0.805.

“CCACACUUGAAGCCAUCGGUC [Fam1B.1 aminoacylation ribozyme variant]” showed a self-aminoacylation (biotinyl-Phe-oxazolone) of 0.99, a self-aminoacylation (biotinyl-Ile-oxazolone) of 1.24 and a self-aminoacylation (biotinyl-Met-oxazolone) of 1.24. It also gave a self-aminoacylation (biotinyl-Val-oxazolone) of 1.47, a self-aminoacylation (biotinyl-Leu-oxazolone) of 0.811 and a self-aminoacylation (biotinyl-Trp-oxazolone) of 1.6.

“CCACACUUGAGGCAAUCGGUC [Fam1B.1 aminoacylation ribozyme variant]” gave a self-aminoacylation (biotinyl-Phe-oxazolone) of 1.28, a self-aminoacylation (biotinyl-Ile-oxazolone) of 1.63 and a self-aminoacylation (biotinyl-Met-oxazolone) of 1.48. For the same sequence, the self-aminoacylation (biotinyl-Val-oxazolone) was 1.81, the self-aminoacylation (biotinyl-Leu-oxazolone) was 1.6 and the self-aminoacylation (biotinyl-Trp-oxazolone) was 1.86.

“CCACACUUUAAGCAACCGGUC [Fam1B.1 aminoacylation ribozyme variant]” showed a self-aminoacylation (biotinyl-Phe-oxazolone) of 0.959, a self-aminoacylation (biotinyl-Ile-oxazolone) of 0.795 and a self-aminoacylation (biotinyl-Met-oxazolone) of 0.613. The self-aminoacylation (biotinyl-Val-oxazolone) was 0.884, the self-aminoacylation (biotinyl-Leu-oxazolone) was 0.844 and the self-aminoacylation (biotinyl-Trp-oxazolone) was 0.72.

“CCACACUUUAAGCAAUCGGCC [Fam1B.1 aminoacylation ribozyme variant]” was tested, and the self-aminoacylation (biotinyl-Phe-oxazolone) was 1.64, the self-aminoacylation (biotinyl-Ile-oxazolone) was 1.52 and the self-aminoacylation (biotinyl-Met-oxazolone) was 1.58. The self-aminoacylation (biotinyl-Val-oxazolone) was 1.74, the self-aminoacylation (biotinyl-Leu-oxazolone) was 1.22 and the self-aminoacylation (biotinyl-Trp-oxazolone) was 1.85.
